Molecular target: Human recombinant prethrombin-2 (human)
Assay: SPR; Biacore S200; prethrombin-2 amine-coupled (NHS/EDC) to a CM5 chip, 1633 RU; fragment-1 injected, two-fold dilutions 7.4-119 uM, single-cycle kinetics, 35 ul/min; 20 mM HEPES, 150 mM NaCl, 5 mM CaCl2, pH 7.4; referenced to an unmodified CM5 surface
Settings: both partners purified

Kd: > 200 µM
B1: fragment-1 of prothrombin (domain or fragment)
chain: ANTFLEEVRKGNLERECVEETCSYEEAFEALESSTATDVFWAKYTACETARTPRDKLAACLEGNCAEGLGTNYRGHVNITRSGIECQLWRSRYPHKPEINSTTHPGADLQENFCRNPDSSTTGPWCYTTDPTVRRQECSIPVCGQDQVTVAMTPR
modifications: purchased fragment-1 (presumably plasma-derived): Gla domain gamma-carboxyglutamates, N-glycans and disulfides expected; 5 mM CaCl2 in assay. Mature numbering + 43 = precursor; ends at cleavage site …

From article PMC5811608, “Structure of prothrombin in the closed form reveals new details on the mechanism of activation” (Scientific Reports, 2018)
